Test results reported in patent US8349318B2, “Use of specifically engineered enzymes to enhance the efficacy of prodrugs” (The Board of Trustees of the University of Illinois, priority 2008, dated 2013).
Like-named read-outs stand apart in the source and are kept apart here.

What was measured:
NB4 cell line = test: Apoptosis assay in CD33 positive NB4 cells; type: cell-based; details: NB4, AraC 250 nM, after 96 hours
Description: The NB4 cells were also treated with AraC, the HuM195-dCK conjugate, or the combination of HuM195-dCK and the AraC, and an apoptosis assay was performed as above. The AraC dose used, however, was decreased from 1000 nM to 250 nM. The results were similar to those observed in the HL60 cells (FIG. 8). The conjugate with AraC (right bars) achieve ˜65% cell killing after 96 hours, whereas AraC alone was below 40%.

parent 293 cells = test: Proliferation of parental 293 cells treated with nucleoside analogs; type: cell-based, human
Description: Next, whether the dCK-S74E/R104M/D133A variant could inhibit cell growth in the presence of NAs including BVdU was tested. Human 293 cells were stably transfected with a recombinant expression construct encoding the dCK-S74E/R104M/D133A protein. The proliferative capacity of the stably transfected cell line was compared to the parental 293 cells after treating the cells with several nucleoside analogs such as AraC, gemcitabine, and BVdU. Since some of the nucleosides were first dissolved in the solvent DMSO, equal amounts of DMSO were used as control.

HL60 cell line = test: Apoptosis assay (Annexin V and PI staining) in CD33 positive HL60 cells; type: cell-based, human; details: HL60, AraC at 1 μM, after 96 hours
Description: The HuM195 antibody will only bind and internalize to cells expressing CD33. Thus, the HL60 cell line (derived from AML cells) and the NB4 cell line, which are CD33 positive, were used to test the activity of the HuM195-dCK system in live cells. The cells were treated with AraC, the HuM195-dCK conjugate, or the combination of HuM195-dCK and the AraC. Annexin V and propidium iodide (PI) staining was used to identify apoptotic cells. […] The combination of AraC with the conjugate results in 20% more killing than AraC alone.

SKBR-3 = test: MTS cytotoxicity assay in breast cancer-derived cell line; type: cell-based, human; details: SKBR-3, 96 hours
Description: The cells were then exposed to varying amount of BVdU for 96 hours. […] Cell viability was measured using the MTS cytotoxicity assay according to the manufacturer's instructions (Promega). […] MTS was reduced by cellular dehydrogenase into formazan, which is soluble in tissue culture medium. […] Since the production of formazan is proportional to the number of living cells, the intensity of the produced color is a good indication of the viability of the cells.

Wild Type dCK [1] = target: T1, Wild Type dCK (Homo sapiens, UniProt P27707); test: Steady-state kinetic (colorimetric, enzyme-coupled) assay of nucleoside phosphorylation by wild type dCK; details: for Km / kcat: Wild Type dCK, 0.4 μM dCK, 1 mM ATP.Mg, 37° C.
Wild Type dCK [2] = target: T1, Wild Type dCK; parameters: The electron density for dCK extended to the last residue (Leu260), while the N-terminus (residues 1 to 19) was flexible; His-tag (N); made in house; host or cells: E. coli BL21(DE3); details: Lotfi et al., 1999; Mansson et al., 2003; cited from earlier work
A100V/R104M/D133A-dCK = target: T2, A100V/R104M/D133A-dCK (Homo sapiens, UniProt P27707, A100V/D133A/R104M); test: Steady-state kinetic assay of nucleoside phosphorylation by A100V/R104M/D133A-dCK; type: biochemical
T2 construct: His-tag (N); made in house

[3] = Kinetic characterization of dCK variants, substrate gemcitabine; type: biochemical; details: for kobs Gem: nucleoside concentration of 200 μM, ATP 1 mM; for rate of phosphorylation, Gem: Table 8, nucleoside 200 mM, ATP 1 μM [sic]; for Rel kobs (Gem): relative to WT
[4] = Kinetic characterization of dCK variants, substrate D-dC; type: biochemical; details: for rate of phosphorylation, D-dC: Table 8, nucleoside 200 mM, ATP 1 μM [sic]; for kobs D-dC: nucleoside concentration of 200 μM, ATP 1 mM; for Rel kobs (D-dC): relative to WT
[5] = Kinetic characterization of dCK variants, substrate L-dT; type: biochemical; details: for rate of phosphorylation, L-dT: Table 8, nucleoside 200 mM, ATP 1 μM [sic]; for kobs L-dT: nucleoside concentration of 200 μM, ATP 1 mM; for Rel kobs (L-dT): relative to WT
[6] = Kinetic characterization of dCK variants, substrate AraC; type: biochemical; details: for kobs AraC: nucleoside concentration of 200 μM, ATP 1 mM; for Rel kobs (AraC): relative to WT
[7] = Kinetic characterization of dCK variants, substrate D-dG; type: biochemical; details: for rate of phosphorylation, D-dG: Table 8, nucleoside 200 mM, ATP 1 μM [sic]; for kobs D-dG: nucleoside concentration of 200 μM, ATP 1 mM; for Rel kobs (D-dG): relative to WT
[8] = Kinetic characterization of dCK variants, substrate D-dA; type: biochemical; details: for kobs D-dA: nucleoside concentration of 200 μM, ATP 1 mM; for Rel kobs (D-dA): relative to WT
[9] = Kinetic characterization of dCK variants, substrate D-dT; type: biochemical; details: for rate of phosphorylation, D-dT: Table 8, nucleoside 200 mM, ATP 1 μM [sic]; for kobs D-dT: nucleoside concentration of 200 μM, ATP 1 mM; for Rel kobs (D-dT): relative to WT
[10] = Kinetic analysis of dCK variants, substrate L-dU; type: biochemical; details: Table 8; nucleoside 200 mM, ATP 1 μM [sic]
Description: In a separate experiment, those mutant dCKs were analyzed in the presence of a nucleoside substrate at a concentration of 200 mM, and a phosphoryl donor ATP at a concentration of 1 μM.

[11] = Iyidogan, et al., 2008; read-out: Km for D-dT; cited from earlier work
[12] = McSorley et al., 2008; cited from earlier work

Nc1ccn([C@@H]2O[C@H](CO)[C@@H](O)[C@@H]2O)c(=O)n1 [Ara-C, 1-β-D-arabinofuranosylcytosine]
cell killing (NB4 cell line): below 40%
inhibition of growth (parent 293 cells; 1 μM): no inhibitory effect
cell death (apoptotic cells) (HL60 cell line): ~50%

O=c1[nH]c(=O)n([C@H]2C[C@H](O)[C@@H](CO)O2)cc1/C=C/Br [BVdU, (E)-5-(2-bromovinyl)-2′-deoxyuridine]
effect on cell viability / proliferation (SKBR-3): no detrimental effect
inhibition of growth (parent 293 cells; highest tested concentration of 50 μM): did not inhibit the growth

Nc1nc2c(ncn2[C@H]2C[C@H](O)[C@@H](CO)O2)c(=O)[nH]1 [D-dG, deoxyguanosine]
kcat, Wild-type (Wild Type dCK [1]; Table 9): ~2.5 s⁻¹

Nc1nc(Cl)nc2c1ncn2[C@@H]1O[C@H](CO)[C@@H](O)[C@@H]1F [clofarabine, 2-chloro-2′-arabino-fluoro-2′-deoxyadenosine]
efficiency as substrate for dCK relative to cladribine (Wild Type dCK [2]): ~3 fold

Nc1ccn([C@H]2CC[C@@H](CO)O2)c(=O)n1 [ddC, 2′,3′-dideoxycytidine]
Km (Wild Type dCK [1]): 407 µM
kcat (Wild Type dCK [1]): 0.18 s⁻¹

Nc1ccn([C@@H]2O[C@H](CO)[C@@H](O)C2(F)F)c(=O)n1 [gemcitabine, 2′,2′-difluorodeoxycytidine]
inhibition at 1 µM (parent 293 cells; Homo sapiens, HEK293, 1 μM, read-out: inhibition of growth): 75%
Km (A100V/R104M/D133A-dCK): 50 µM
kcat (A100V/R104M/D133A-dCK): 3.52 s⁻¹
Km (Wild Type dCK [1]): 22 µM
kcat (Wild Type dCK [1]): 0.37 s⁻¹
higher enzymatic efficiency compared to dC (Wild Type dCK [1]; wild type dCK): ~4 fold
increase in kcat compared to dC (Wild Type dCK [1]; wild type dCK): 10 fold

R104F/D133A: human dCK mutant, phenylalanine at position 104, D133A
kobs Gem [3]: <0.005 s⁻¹
rate of phosphorylation, D-dC [4]: 0.02 s⁻¹
kobs D-dC [4]: <0.005 s⁻¹
rate of phosphorylation, L-dT [5]: 0.02 s⁻¹
kobs L-dT [5]: <0.005 s⁻¹
kobs AraC [6]: <0.005 s⁻¹
rate of phosphorylation, D-dG [7]: 0.02 s⁻¹
kobs D-dG [7]: <0.005 s⁻¹
kobs D-dA [8]: <0.005 s⁻¹
rate of phosphorylation, D-dT [9]: 0.02 s⁻¹
kobs D-dT [9]: <0.005 s⁻¹

R104I/D133A: modified human dCK, isoleucine at position 104, alanine at position 133, SEQ ID NO:12
rate of phosphorylation, L-dU [10]: 0.4 s⁻¹
rate of phosphorylation, Gem [3]: 0.21 s⁻¹
kobs Gem [3]: 0.21 ± 0.08 s⁻¹
Rel kobs (Gem) [3]: 0.53
rate of phosphorylation, D-dC [4]: 0.06 s⁻¹
kobs D-dC [4]: 0.06 ± 0.01 s⁻¹
Rel kobs (D-dC) [4]: 2
rate of phosphorylation, L-dT [5]: 0.19 s⁻¹
kobs L-dT [5]: 0.19 ± 0.02 s⁻¹
Rel kobs (L-dT) [5]: 10
kobs AraC [6]: 0.07 ± 0.01 s⁻¹
Rel kobs (AraC) [6]: 0.25
rate of phosphorylation, D-dG [7]: 0.08 s⁻¹
kobs D-dG [7]: 0.08 ± 0.01 s⁻¹
Rel kobs (D-dG) [7]: 0.08
kobs D-dA [8]: 0.21 ± 0.01 s⁻¹
Rel kobs (D-dA) [8]: 0.18
rate of phosphorylation, D-dT [9]: 0.4 s⁻¹
kobs D-dT [9]: 0.40 ± 0.01 s⁻¹
Rel kobs (D-dT) [9]: 50

R104K/D133A: human dCK mutant, lysine at position 104, D133A
kobs Gem [3]: <0.005 s⁻¹
kobs D-dC [4]: <0.005 s⁻¹
kobs L-dT [5]: <0.005 s⁻¹
kobs AraC [6]: <0.005 s⁻¹
kobs D-dG [7]: <0.005 s⁻¹
kobs D-dA [8]: <0.005 s⁻¹
kobs D-dT [9]: <0.005 s⁻¹

R104L/D133A: modified human dCK, leucine at position 104, alanine at position 133, SEQ ID NO:10
rate of phosphorylation, L-dU [10]: 2.56 s⁻¹
rate of phosphorylation, Gem [3]: 2.04 s⁻¹
kobs Gem [3]: 2.04 ± 0.03 s⁻¹
Rel kobs (Gem) [3]: 5.20
rate of phosphorylation, D-dC [4]: 0.27 s⁻¹
kobs D-dC [4]: 0.27 ± 0.09 s⁻¹
Rel kobs (D-dC) [4]: 9
rate of phosphorylation, L-dT [5]: 1.07 s⁻¹
kobs L-dT [5]: 1.07 ± 0.09 s⁻¹
Rel kobs (L-dT) [5]: 63
kobs AraC [6]: 0.64 ± 0.06 s⁻¹
Rel kobs (AraC) [6]: 0.35
rate of phosphorylation, D-dG [7]: 0.3 s⁻¹
kobs D-dG [7]: 0.30 ± 0.01 s⁻¹
Rel kobs (D-dG) [7]: 0.32
kobs D-dA [8]: 3.45 ± 0.16 s⁻¹
Rel kobs (D-dA) [8]: 2.9
Km [9]: < 25 µM
rate of phosphorylation, D-dT [9]: 2.86 s⁻¹
kobs D-dT [9]: 2.86 ± 0.09 s⁻¹
Rel kobs (D-dT) [9]: 358

R104Q/D133A: modified human dCK, glutamine at position 104, alanine at position 133, SEQ ID NO:8
rate of phosphorylation, L-dU [10]: 0.14 s⁻¹
rate of phosphorylation, Gem [3]: 0.17 s⁻¹
kobs Gem [3]: 0.17 ± 0.04 s⁻¹
Rel kobs (Gem) [3]: 0.43
rate of phosphorylation, D-dC [4]: 0.08 s⁻¹
kobs D-dC [4]: 0.08 ± 0.01 s⁻¹
Rel kobs (D-dC) [4]: 2.7
rate of phosphorylation, L-dT [5]: 0.15 s⁻¹
kobs L-dT [5]: 0.15 ± 0.02 s⁻¹
Rel kobs (L-dT) [5]: 9
kobs AraC [6]: 0.18 ± 0.01 s⁻¹
Rel kobs (AraC) [6]: 0.60
rate of phosphorylation, D-dG [7]: 0.06 s⁻¹
kobs D-dG [7]: 0.06 ± 0.01 s⁻¹
Rel kobs (D-dG) [7]: 0.06
kobs D-dA [8]: 0.18 ± 0.04 s⁻¹
Rel kobs (D-dA) [8]: 0.15
rate of phosphorylation, D-dT [9]: 0.1 s⁻¹
kobs D-dT [9]: 0.10 ± 0.06 s⁻¹
Rel kobs (D-dT) [9]: 12.5

R104Q: human dCK variant of Table 8 with Q at position 104 and unchanged D133
rate of phosphorylation, L-dU [10]: 0.06 s⁻¹
rate of phosphorylation, Gem [3]: 0.06 s⁻¹
rate of phosphorylation, D-dC [4]: 0.07 s⁻¹
rate of phosphorylation, L-dT [5]: 0.06 s⁻¹
rate of phosphorylation, D-dG [7]: 0.06 s⁻¹
rate of phosphorylation, D-dT [9]: 0.05 s⁻¹

R104V/D133A: human dCK mutant, valine at position 104, D133A
kobs Gem [3]: <0.005 s⁻¹
rate of phosphorylation, D-dC [4]: 0.03 s⁻¹
kobs D-dC [4]: <0.005 s⁻¹
rate of phosphorylation, L-dT [5]: 0.05 s⁻¹
kobs L-dT [5]: <0.005 s⁻¹
kobs AraC [6]: <0.005 s⁻¹
rate of phosphorylation, D-dG [7]: 0.03 s⁻¹
kobs D-dG [7]: <0.005 s⁻¹
kobs D-dA [8]: <0.005 s⁻¹
rate of phosphorylation, D-dT [9]: 0.04 s⁻¹
kobs D-dT [9]: <0.005 s⁻¹

WT: wild type human deoxycytidine kinase, SEQ ID NO:1 [reference compound]
rate of phosphorylation, Gem [3]: 0.39 s⁻¹
kobs Gem [3]: 0.39 ± 0.01 s⁻¹
Rel kobs (Gem) [3]: 1.00
rate of phosphorylation, D-dC [4]: 0.03 s⁻¹
kobs D-dC [4]: 0.03 ± 0.01^b sec^−1
Rel kobs (D-dC) [4]: 1
Km [11]: > 3000 µM
kobs L-dT [5]: 0.017 ± 0.023 s⁻¹
Rel kobs (L-dT) [5]: 1
kobs AraC [6]: 0.30 ± 0.04^b sec^−1
Rel kobs (AraC) [6]: 1.00
rate of phosphorylation, D-dG [7]: 0.94 s⁻¹
kobs D-dG [7]: 0.94 ± 0.18 s⁻¹
Rel kobs (D-dG) [7]: 1
kobs D-dA [8]: 1.19 ± 0.01 s⁻¹
Rel kobs (D-dA) [8]: 1
kobs D-dT [9]: 0.008 ± 0.001^b sec^−1
Rel kobs (D-dT) [9]: 1

dCK S74E: dCK S74E mutant mimicking the Ser74 phosphorylated state [reference compound]
increase of the rate of phosphorylation of dC [12]: 11 fold
